Assay [1] addresses T1, IGF-1R on A549 human lung adenocarcinoma cells or primary human ocular choroid fibroblasts (HOCF) (human, UniProt P08069 31-1367).
T1 construct: whole, on cells; Endogenous receptor on human cell lines; also called IGF-1R on A549 cells; IGF-1R on HOCF cells
Put plainly: cell based binding assay on A549 cells; YTE only heavy chain (SEQ ID NO: 94).

In assay [2] the target is T1, IGF-1R on A549 human lung …. Put plainly: cell-based or functional assay.
For assay [3] the target is unchanged. Put plainly: cell based binding assay on A549 cells; C22S plus YTE heavy chain (SEQ ID NO: 95).
Assay [4] has the same target. Put plainly: flow cytometry on A549 cells, binding dose response curve (MFI). Here is the method:
(§1) Unbound antibody was removed by washing, and the cells were incubated with an Alexa Fluor 488™—goat anti-human antibody (fluorescently labeled antibody) and a cell impermeable dye to gate live cells. The median fluorescence intensity (MFI) of viable cells was measured by flow cytometry and the data were analyzed using FlowJo™ software. Dose curves were fitted using a non-linear regression model; log (agonist) vs response-variable slope (four parameters).
On the technique in general: A flow cytometer gives signals particle by particle.

For assay [5] the target is unchanged. Put plainly: flow cytometry on HOCF cells, binding dose response curve (MFI). Here is the method: as §1
The target in assay [6] is IGF-1R (as used in the surface plasmon resonance assay of Example 7) (UniProt P08069 31-932, limits assumed). In words: SPR, pH 7.4. For orientation: In SPR one partner is held on a chip, and binding of the other changes the refractive index at the surface.
Chain of IGF-1R (as used in the surface plasmon resonance assay of Example 7) (P08069 31-932 limits assumed): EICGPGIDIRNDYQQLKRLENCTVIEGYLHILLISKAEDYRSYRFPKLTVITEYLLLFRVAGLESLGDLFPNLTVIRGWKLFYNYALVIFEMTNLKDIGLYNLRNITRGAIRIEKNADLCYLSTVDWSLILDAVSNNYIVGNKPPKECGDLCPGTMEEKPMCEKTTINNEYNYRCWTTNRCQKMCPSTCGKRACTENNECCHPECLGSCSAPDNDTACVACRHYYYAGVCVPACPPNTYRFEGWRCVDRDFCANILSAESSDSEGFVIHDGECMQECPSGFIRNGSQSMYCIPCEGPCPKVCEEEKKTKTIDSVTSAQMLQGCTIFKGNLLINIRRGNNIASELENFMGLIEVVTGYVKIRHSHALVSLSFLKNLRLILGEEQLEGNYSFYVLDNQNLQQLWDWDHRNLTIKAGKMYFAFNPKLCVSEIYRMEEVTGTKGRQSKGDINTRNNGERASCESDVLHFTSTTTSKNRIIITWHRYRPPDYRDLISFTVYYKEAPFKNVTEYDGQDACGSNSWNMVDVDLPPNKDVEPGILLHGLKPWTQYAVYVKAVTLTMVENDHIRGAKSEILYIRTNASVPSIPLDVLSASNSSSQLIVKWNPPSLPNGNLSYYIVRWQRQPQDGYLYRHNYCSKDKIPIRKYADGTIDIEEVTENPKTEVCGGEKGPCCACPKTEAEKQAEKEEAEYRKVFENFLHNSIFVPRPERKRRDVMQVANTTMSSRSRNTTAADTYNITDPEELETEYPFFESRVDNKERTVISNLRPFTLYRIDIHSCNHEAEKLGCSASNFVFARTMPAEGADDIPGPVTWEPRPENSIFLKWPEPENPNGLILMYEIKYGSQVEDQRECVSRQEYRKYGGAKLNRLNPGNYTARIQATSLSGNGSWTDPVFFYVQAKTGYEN

T1 sequence (P08069 31-1367): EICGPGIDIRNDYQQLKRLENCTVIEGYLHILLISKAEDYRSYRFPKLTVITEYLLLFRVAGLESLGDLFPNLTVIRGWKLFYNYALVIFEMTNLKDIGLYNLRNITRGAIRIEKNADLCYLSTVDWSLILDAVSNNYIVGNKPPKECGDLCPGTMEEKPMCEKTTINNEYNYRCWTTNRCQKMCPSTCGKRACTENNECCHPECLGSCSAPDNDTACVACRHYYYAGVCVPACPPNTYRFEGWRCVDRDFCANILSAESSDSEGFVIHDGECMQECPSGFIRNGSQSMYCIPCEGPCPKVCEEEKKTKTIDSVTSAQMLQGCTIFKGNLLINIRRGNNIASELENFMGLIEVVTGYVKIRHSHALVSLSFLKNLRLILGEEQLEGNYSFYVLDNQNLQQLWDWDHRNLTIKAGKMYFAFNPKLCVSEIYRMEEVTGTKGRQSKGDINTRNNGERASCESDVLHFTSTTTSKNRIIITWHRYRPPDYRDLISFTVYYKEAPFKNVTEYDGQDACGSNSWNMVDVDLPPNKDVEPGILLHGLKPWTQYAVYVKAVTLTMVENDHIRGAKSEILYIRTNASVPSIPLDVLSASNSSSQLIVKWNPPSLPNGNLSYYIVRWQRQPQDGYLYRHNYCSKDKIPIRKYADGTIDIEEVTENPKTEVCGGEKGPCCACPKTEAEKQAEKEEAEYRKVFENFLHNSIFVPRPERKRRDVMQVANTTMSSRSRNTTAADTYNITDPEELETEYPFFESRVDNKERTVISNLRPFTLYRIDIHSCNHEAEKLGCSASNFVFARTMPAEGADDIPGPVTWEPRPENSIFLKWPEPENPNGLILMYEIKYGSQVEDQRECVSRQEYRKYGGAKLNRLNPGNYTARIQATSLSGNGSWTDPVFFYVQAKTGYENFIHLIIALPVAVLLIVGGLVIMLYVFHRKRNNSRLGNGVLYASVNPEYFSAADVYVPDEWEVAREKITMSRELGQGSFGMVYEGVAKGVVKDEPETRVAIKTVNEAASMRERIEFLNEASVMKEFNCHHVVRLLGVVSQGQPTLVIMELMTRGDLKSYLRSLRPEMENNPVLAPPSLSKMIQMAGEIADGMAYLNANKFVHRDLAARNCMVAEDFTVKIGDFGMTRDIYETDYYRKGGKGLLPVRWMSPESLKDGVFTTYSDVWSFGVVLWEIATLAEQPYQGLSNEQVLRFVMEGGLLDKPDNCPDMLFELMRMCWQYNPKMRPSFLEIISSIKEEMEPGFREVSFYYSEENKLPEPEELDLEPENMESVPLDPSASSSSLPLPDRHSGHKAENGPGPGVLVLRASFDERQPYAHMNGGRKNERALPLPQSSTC

B1: VRDN-1100 with the Fc YTE mutations in the heavy chain (antibody, human IgG1, kappa)
heavy: QVQLVQSGAEVVKPGASVKLSCKASGYTFTSYWMHWVKQRPGQGLEWIGEINPSNGRTNYNQKFQGKATLTVDKSSSTAYMQLSSLTSEDSAVYYFARGRPDYYGSSKWYFDVWGQGTTVTVSSASTKGPSVFPLAPSSKSTSGGTAALGCLVKDYFPEPVTVSWNSGALTSGVHTFPAVLQSSGLYSLSSVVTVPSSSLGTQTYICNVNHKPSNTKVDKKVEPKSCDKTHTCPPCPAPELLGGPSVFLFPPKPKDTLYITREPEVTCVVVDVSHEDPEVKFNWYVDGVEVHNAKTKPREEQYNSTYRVVSVLTVLHQDWLNGKEYKCKVSNKALPAPIEKTISKAKGQPREPQVYTLPPSRDELTKNQVSLTCLVKGFYPSDIAVEWESNGQPENNYKTTPPVLDSDGSFFLYSKLTVDKSRWQQGNVFSCSVMHEALHNHYTQKSLSLSPG
light: DVVMTQTPLSLPVSLGDPASISCRSSQSIVHSNVNTYLEWYLQKPGQSPRLLIYKVSNRFSGVPDRFSGSGAGTDFTLRISRVEAEDLGIYYCFQGSHVPPTFGGGTKLEIKRTVAAPSVFIFPPSDEQLKSGTASVVCLLNNFYPREAKVQWKVDNALQSGNSQESVTEQDSKDSTYSLSSTLTLSKADYEKHKVYACEVTHQGLSSPVTKSFNRGEC
notes: also called YTE Fc mutatant version of VRDN1100; YTE only mutant
A word on the EC50: it is the concentration giving half of the maximal effect. As for B1, the EC50 in assay [1] came out at 0.3 nM. For the same molecule, in assay [2], the “IC50 of inhibition of IGF-1R autophosphorylation” value came out at 0.4 nM.

B2: VRDN-1100 with C22S mutation and Fc YTE mutations in the heavy chain (antibody, human IgG1, kappa)
heavy: QVQLVQSGAEVVKPGASVKLSSKASGYTFTSYWMHWVKQRPGQGLEWIGEINPSNGRTNYNQKFQGKATLTVDKSSSTAYMQLSSLTSEDSAVYYFARGRPDYYGSSKWYFDVWGQGTTVTVSSASTKGPSVFPLAPSSKSTSGGTAALGCLVKDYFPEPVTVSWNSGALTSGVHTFPAVLQSSGLYSLSSVVTVPSSSLGTQTYICNVNHKPSNTKVDKKVEPKSCDKTHTCPPCPAPELLGGPSVFLFPPKPKDTLYITREPEVTCVVVDVSHEDPEVKFNWYVDGVEVHNAKTKPREEQYNSTYRVVSVLTVLHQDWLNGKEYKCKVSNKALPAPIEKTISKAKGQPREPQVYTLPPSRDELTKNQVSLTCLVKGFYPSDIAVEWESNGQPENNYKTTPPVLDSDGSFFLYSKLTVDKSRWQQGNVFSCSVMHEALHNHYTQKSLSLSPG
light: DVVMTQTPLSLPVSLGDPASISCRSSQSIVHSNVNTYLEWYLQKPGQSPRLLIYKVSNRFSGVPDRFSGSGAGTDFTLRISRVEAEDLGIYYCFQGSHVPPTFGGGTKLEIKRTVAAPSVFIFPPSDEQLKSGTASVVCLLNNFYPREAKVQWKVDNALQSGNSQESVTEQDSKDSTYSLSSTLTLSKADYEKHKVYACEVTHQGLSSPVTKSFNRGEC
notes: also called C22S and Fc YTE mutant; C22S plus YTE mutations
For the molecule B2, the “IC50 of inhibition of IGF-1R autophosphorylation” value in assay [2] worked out at 0.37 nM. The 50% effective concentration (EC50) in assay [3] is 0.36 nM.

B3: VRDN-1100 (antibody, V domains shown)
VH: QVQLVQSGAEVVKPGASVKLSCKASGYTFTSYWMHWVKQRPGQGLEWIGEINPSNGRTNYNQKFQGKATLTVDKSSSTAYMQLSSLTSEDSAVYYFARGRPDYYGSSKWYFDVWGQGTTVTVSS
VL: DVVMTQTPLSLPVSLGDPASISCRSSQSIVHSNVNTYLEWYLQKPGQSPRLLIYKVSNRFSGVPDRFSGSGAGTDFTLRISRVEAEDLGIYYCFQGSHVPPTFGGGTKLEIKR
notes: Humanized monoclonal antibody to IGF-1R; also called VRDN-01100
In the case of B3, the “IC50 of inhibition of IGF-1 stimulated receptor phosphorylation on A549 cells (pIGF-1R ELISA)” value in assay [2] turned out to be 90 pM. The “IC50 of inhibition of IGF-1 stimulated receptor phosphorylation on HOCF cells (pIGF-1R ELISA)” value in assay [2] worked out at 90 pM. Also, the 50% effective concentration (EC50) in assay [4] turned out to be 0.1 nM; in assay [5], 0.4 nM.

B4: mutant of VRDN-1100 with a C22S mutation in the heavy chain (antibody, V domains shown)
VH: QVQLVQSGAEVVKPGASVKLSSKASGYTFTSYWMHWVKQRPGQGLEWIGEINPSNGRTNYNQKFQGKATLTVDKSSSTAYMQLSSLTSEDSAVYYFARGRPDYYGSSKWYFDVWGQGTTVTVSS
VL: DVVMTQTPLSLPVSLGDPASISCRSSQSIVHSNVNTYLEWYLQKPGQSPRLLIYKVSNRFSGVPDRFSGSGAGTDFTLRISRVEAEDLGIYYCFQGSHVPPTFGGGTKLEIK
A word on the Kd: it is the equilibrium constant for the complex coming apart. A lower Kd goes with tighter binding. The term koff denotes the first-order rate constant of dissociation. Low values mean slow dissociation, high ones fast dissociation. As usually defined, the kon is a measure of how fast the partners come together. A lower kon goes with slow association. Turning to B4, in assay [6], binding was put at a Kd of 0.21 nM, the koff is 2.18e-05 s⁻¹ and the kon was 104000 M⁻¹ s⁻¹.

Source of the values: patent US20250382374A1 (VIRIDIAN THERAPEUTICS, published 2025).
